Measured values as given in patent publication US20080261871A1, “Y2/Y4 Selective Receptor Agonists for Therapeutic Interventions” (priority 2004, published 2008).
No end group written: not given here.

T1: human Y2 receptor (human, UniProt P49146 1-381)
T1 sequence (looked up): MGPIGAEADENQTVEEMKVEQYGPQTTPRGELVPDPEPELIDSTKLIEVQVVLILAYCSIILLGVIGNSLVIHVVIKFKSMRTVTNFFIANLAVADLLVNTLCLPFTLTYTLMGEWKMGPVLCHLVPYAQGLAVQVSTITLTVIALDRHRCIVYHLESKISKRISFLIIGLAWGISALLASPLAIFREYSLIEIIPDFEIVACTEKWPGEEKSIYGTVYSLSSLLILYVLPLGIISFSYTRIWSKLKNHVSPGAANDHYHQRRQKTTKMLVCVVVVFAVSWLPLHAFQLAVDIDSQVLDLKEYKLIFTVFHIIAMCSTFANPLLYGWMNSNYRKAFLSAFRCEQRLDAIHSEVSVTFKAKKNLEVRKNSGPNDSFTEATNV

T2: human Y1 receptor (human, UniProt P25929 1-384)
T2 sequence (looked up): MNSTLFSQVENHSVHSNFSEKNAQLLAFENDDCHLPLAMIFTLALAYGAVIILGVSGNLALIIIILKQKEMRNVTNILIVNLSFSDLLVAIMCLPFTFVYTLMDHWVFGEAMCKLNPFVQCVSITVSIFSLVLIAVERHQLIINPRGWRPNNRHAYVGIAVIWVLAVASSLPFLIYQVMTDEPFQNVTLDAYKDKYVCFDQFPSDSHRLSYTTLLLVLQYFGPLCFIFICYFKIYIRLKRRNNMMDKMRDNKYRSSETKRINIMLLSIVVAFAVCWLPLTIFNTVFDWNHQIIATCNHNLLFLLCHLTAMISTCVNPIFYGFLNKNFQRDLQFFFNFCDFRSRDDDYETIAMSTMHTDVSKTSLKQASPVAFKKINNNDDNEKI

B1: [His26,Gln34]PP (peptide)
peptide: APLEPVYPGDNATPEQMAQYAADLRHYINMLTRQRY-NH2
B2: [Leu30,Gln34]PP (peptide)
peptide: APLEPVYPGDNATPEQMAQYAADLRRYINLLTRQRY-NH2

Legend:
in vivo [1] = conditions: dog, iv, 100 ug/kg
Protocol: (§1) At the highest dose a plasma levels of 100 nM was obtained in the dogs.

anesthetized dogs = assay: in vivo; conditions: dog, iv
Protocol: as §1

in vivo [2] = assay: in vivo; design: species or system cyno monkeys; conditions: cynomolgus monkey
Source text: […]. […] […]. Apparently, the Y4 receptor activation—conceivably in the area postreama-prevents the emetic effect of the Y2 activation form the same compound. This property of a combined Y2-Y4 selective agonist is of great benefit for the treatment of obesity and associated conditions.

mice = assay: Acute food intake in mice after subcutaneous injection; assay type: in vivo; conditions: mice fasted 16 hours, sc
Protocol: Food and water were available ad libitum except just before experiments (see below). The mice were acclimatized to subcutaneous injections during the week before experiments started. Mice were used once each in the experiments. Just before administration the peptides were diluted in physiological saline and administered in 100 μL volume for subcutaneous administration. Results are expressed as mean +/−SE. Analysis of variance followed by Bonferroni's test were used to assess differences among groups.
A standard diet was used (CLEA Japan, Inc., Tokyo, Japan) and food intake was measured by subtracting uneaten food from the initially premeasured food after administration and checking for food spillage.

human Y2 receptor = molecular target: T1, human Y2 receptor; assay: cell-based or functional assay
human Y4 receptor = human Y4 receptor (human, UniProt P50391 1-375); assay: cell-based or functional assay
human Y4 receptor, sequence (P50391 whole entry): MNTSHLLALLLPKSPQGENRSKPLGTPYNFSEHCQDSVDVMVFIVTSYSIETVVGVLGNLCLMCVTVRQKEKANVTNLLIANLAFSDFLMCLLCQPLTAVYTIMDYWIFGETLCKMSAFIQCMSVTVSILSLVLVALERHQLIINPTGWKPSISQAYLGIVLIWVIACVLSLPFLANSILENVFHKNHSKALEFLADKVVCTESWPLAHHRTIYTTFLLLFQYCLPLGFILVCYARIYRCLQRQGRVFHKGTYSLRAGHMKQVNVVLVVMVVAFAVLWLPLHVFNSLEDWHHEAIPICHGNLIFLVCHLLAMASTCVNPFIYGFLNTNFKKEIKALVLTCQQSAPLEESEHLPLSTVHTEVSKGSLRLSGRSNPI

human Y1 receptor = molecular target: T2, human Y1 receptor; assay: cell-based or functional assay

| Molecule | level at time molar (in vivo [1]) | plasma level dose relationship (anesthetized dogs) | level at time molar (in vivo [2]) | duration of inhibition of food intake (mice; 1 μg per animal) | inhibitory effect on food intake compared with PYY3-36 (mice; 1 and 10 μg per animal) | EC50, inositol phosphate turnover (human Y2 receptor) | EC50, inositol phosphate turnover (human Y4 receptor) | EC50, inositol phosphate turnover (human Y1 receptor) |
| --- | --- | --- | --- | --- | --- | --- | --- | --- |
| CC[C@H](C)[C@H](NC(=O)[C@H](Cc1ccc(O)cc1)NC(=O)[C@H](CCCNC(=N)N)NC(=O)[C@H](CCCNC(=N)N)NC(=O)[C@H](CC(C)C)NC(=O)[C@H](CC(=O)O)NC(=O)[C@H](C)NC(=O)[C@H](C)NC(=O)[C@H](Cc1ccc(O)cc1)NC(=O)[C@H](CCC(N)=O)NC(=O)[C@H](C)NC(=O)[C@H](CCSC)NC(=O)[C@H](CCC(N)=O)NC(=O)[C@H](CCC(=O)O)NC(=O)[C@@H]1CCCN1C(=O)[C@@H](NC(=O)[C@H](C)NC(=O)[C@H](CC(N)=O)NC(=O)[C@H](CC(=O)O)NC(=O)CNC(=O)[C@@H]1CCCN1C(=O)[C@H](Cc1ccc(O)cc1)NC(=O)[C@@H](NC(=O)[C@@H]1CCCN1C(=O)[C@H](CCC(=O)O)NC(=O)[C@H](CC(C)C)NC(=O)[C@@H]1CCCN1C(=O)[C@H](C)N)C(C)C)[C@@H](C)O)C(=O)N[C@@H](CC(N)=O)C(=O)N[C@@H](CCSC)C(=O)N[C@@H](CC(C)C)C(=O)N[C@H](C(=O)N[C@@H](CCCNC(=N)N)C(=O)N[C@@H](CCC(N)=O)C(=O)N[C@@H](CCCNC(=N)N)C(=O)N[C@@H](Cc1ccc(O)cc1)C(N)=O)[C@@H](C)O [[Gln34]PP] | 100 nM | linear dose relationship | 12 to 13 nM | more than 8 hours | more pronounced and long-lasting inhibitory effect |  |  |  |
| B1 |  |  |  |  |  | 6.1 nM | 9.2 nM | 130 nM |
| B2 |  |  |  |  |  | 8.6 nM | 4.5 nM | 102 nM |
